# B1: Pleurotus ostreatus versatile peroxidase VP5, designed variant 5H, SEQ ID NO: 1 (wild type SEQ ID NO: 4; mutations A11S, V15T, A17S, A19E, P26D, D38G, A40Q, … (protein)
# chain: VSLPQKRATCSGGQTTSNEACCVLFDLMEDLQKNLFDGGQCGEQAHEALRLTFHDAIGFSPSRGVMGGADGSVITFSDIETNFPANLGIDDIVEAEKSFLQRHNISAGDLVHFAATLAVTNCPGAPRIPFFLGRPPATAPSPPGLVPEPFDSVTDILARMADAGFSPVEVVWLLSAHSVAAADHVDPTIPGTPFDSTPNLFDSQFFIETQLRGTTFPGTGGNPGEVKSPLPGEMRLQSDHLFARDPRTACEWQSMVNDQQKIQDRFRDTLFKMSMLGQNQDDMIDCSDVIPVPPPLTTKPHLPAGKSKTDVEQACATAPFPTLPADPGPPTSVPPVPPA
# B2: Pleurotus ostreatus versatile peroxidase VP11, designed variant 11H, SEQ ID NO: 3 (wild type SEQ ID NO: 6; mutations A11S, V15T, A17S, P26D, I27L, L28R, E29D, … (protein)
# chain: VTLPQKRATCSGGQTTSNAACCVLFDLRDDLQKNLFDGGQCGEEVHESLRLTFHDAIGFSPTKGGGGADGSVLIFSDTELNFPANLGIDEIVEAQKPFLQRHNISAGDLVQFAGALGVSNCPGAPRIPFFLGRPPATAPSPDGLVPEPFDSVDDILARMADAGFSPVEVVWLLSSHTIAAADHVDPTIPGTPFDSTPSIFDSQFFIETQLRGTLFPGTGGNPGEVESPLPGEIRLQSDHLLARDPRTACEWQSMVDNMPKIQNRFAATMLKMSLLGQNVRDLIDCSDVIPTPPPLVGTAHLPAGKTQSDVEQACATTPFPTIPADPGPVTSVPPVPPS
# Assays:
# [1] = substrate: COc1ccc(CO)cc1OC; test: purified protein, by the assay type; conditions: other: VA, RB5, optimum pH, 25° C., 0.4 mM H2O2
# Procedure: (§5) VPs production and purification. […] An aliquot of cells was removed and used to inoculate 100 mL of minimal medium in a 1 L flask to an OD600 nm of 0.25-0.30, under the same conditions. The cells completed two growth phases (8-10 hours, reaching OD600 nm˜1-1.5), then the expression medium (450 mL) was inoculated with 50 mL of the pre-culture in a 2 L flask (OD600 nm˜0.1). Cells were incubated for a further ˜60 hours at 30° C. and 225 rpm. Thereafter, cells were centrifuged at 6000 g for 15 min at 4° C., and the supernatant was collected and filtered with a 0.2 μm filter bottle.
# (§6) The reaction mixtures contained a specific substrate in 100 mM citrate-phosphate-borate buffer (pH 2, 3, 3.5, 4, 5, 6, 7, 8) and 0.1 mM H2O2. […] The following substrate concentrations and absorption wavelengths were used: ABTS: 2 mM, 418 nm; DMP: 5 mM, 469 nm; RB5: 0.05 mM, 598 nm; VA: 30 mM, 310 nm.
# [2] = substrate: CCn1c(=NN=c2sc3cc(S(=O)(=O)O)ccc3n2CC)sc2cc(S(=O)(=O)O)ccc21; test: purified protein, by the assay type; conditions: optimum pH, 25° C., 0.4 mM H2O2
# Procedure: as §5, §6
# [3] = substrate: COc1cccc(OC)c1O; test: purified protein, by the assay type; conditions: optimum pH, 25° C., 0.4 mM H2O2
# Procedure: as §5, §6
# [4] = substrate: Nc1c(N=Nc2ccc(S(=O)(=O)CCOS(=O)(=O)O)cc2)c(S(=O)(=O)O)cc2cc(S(=O)(=O)O)c(N=Nc3ccc(S(=O)(=O)CCOS(=O)(=O)O)cc3)c(O)c12; test: purified protein, by the assay type; conditions: other: VA, RB5, optimum pH, 25° C., 0.4 mM H2O2
# Procedure: as §5, §6
# [5] = substrate: OO; test: purified protein, by the assay type; conditions: other: H2O2 kinetics with 2 mM ABTS, optimum pH for ABTS, 25° C.
# Procedure: as §5, §6
# [6] = substrate: COc1ccc(CO)cc1OC; test: Steady-state kinetics (Michaelis-Menten) of purified VP design 11H with peroxidase substrates; format: biochemical, Pleurotus ostreatus; conditions: other: VA, RB5, optimum pH, 25° C., 0.1 mM H2O2
# Procedure: (§1) VPs production and purification. A colony from S. cerevisiae clone containing the VP gene (5H, 8H, 11H, VPL_R4, VPL_2-1B) was picked from an SC drop-out plate, inoculated in 25 mL minimal medium in a 250 flask, and incubated for 48 hours at 30° C. and 225 rpm. An aliquot of cells was removed and used to inoculate 100 mL of minimal medium in a 1 L flask to an OD600 nm of 0.25-0.30, under the same conditions. The cells completed two growth phases (8-10 hours, reaching OD600 nm˜1-1.5), then the expression medium (450 mL) was inoculated with 50 mL of the pre-culture in a 2 L flask (OD600 nm˜0.1). Cells were incubated for a further ˜60 hours at 30° C. and 225 rpm. Thereafter, cells were centrifuged at 6000 g for 15 min at 4° C., and the supernatant was collected and filtered with a 0.2 μm filter bottle.
# (§2) Filtrates were subjected to fractional precipitation with ammonium sulfate in two steps: first cut of 50%, followed by centrifugation and elimination of the precipitates, and the second cut of 70%. Buffer A was used to dissolve the pellet, and the dissolved protein solution was shaken overnight at 4° C. for maximal recovery. The dissolved fraction was then centrifuged, filtrated, concentrated, and subjected to overnight dialysis against buffer A. Filtered fractions of the VP proteins after dialysis were uploaded into a HiTrap™ Q HP Column (GE Healthcare Bio-Sciences AB, Uppsala, Sweden) pre-equilibrated with buffer A, through ÄKTA pure protein purification system (GE Healthcare Bio-Sciences AB). Proteins were eluted in a two-step linear gradient from 0 to 1 M NaCl, at a flow rate of 1 ml/min: the first phase of 0-25% over 15 column volumes (75 min) and second phase of 25-100% over 2 column volumes (10 min). The fractions of the peak with the highest VP activity (and absorption at 407 nm) were pooled, concentrated, and dialyzed against 20 mM piperazine buffer pH=5.5 and 150 mM NaCl (buffer B). Protein fractions were then uploaded onto a Superdex 75 Increase 10/300 GL (GE Healthcare Bio-Sciences AB) through the ÄKTA pure system pre-equilibrated with buffer B. The fractions of the peak with the highest VP activity (and absorption at 407 nm) were pooled and dialyzed against buffer A. Pure protein samples were stored at 4° C. Protein concentration was determined using the BCA assay with bovine serum albumin as a standard. The obtained Reinheitszahl values (Rz: Abs407 nm/Abs280 nm), which indicate for the purity of peroxidases, were 1 for 8H (due to high tryptophan content) and above 2 for 5H, 11H, R4 and 2-1B.
# (§3) pH activity profiles. For purified 5H, 8H, 11H, and R4, 20 μL protein samples (diluted in buffer A) were transferred into activity 96 plates (in the case of VA and MnSO4, UV-Star plates; Greiner Bio-One GmbH, Kremsmünster, Austria) and then, 180 μL of the reaction mixture were added to each row in the plate, and absorption at the appropriate wavelength (substrate-dependent) was recorded immediately in a kinetic mode in a plate-reader at 25° C. The reaction mixtures contained a specific substrate in 100 mM citrate-phosphate-borate buffer (pH 2, 3, 3.5, 4, 5, 6, 7, 8) and 0.1 mM H2O2. The activities were recorded in triplicate. The following substrate concentrations and absorption wavelengths were used: ABTS: 2 mM, 418 nm; DMP: 5 mM, 469 nm; RB5: 0.05 mM, 598 nm; VA: 30 mM, 310 nm. For manganese, the reaction mixtures contained 60 mM MnSO4 in 100 mM sodium tartrate buffer (pH 3, 3.5, 4, 4.5, 5) and 0.1 mM H2O2, and the Mn^3+-tartrate complex absorption was read at 238 nm. For each protein and substrate, the activities were normalized to the activity at optimal pH for residual activity calculations. Each activity assay was conducted in triplicate.
# (§4) Kinetic parameters. Steady-state kinetics were determined for 5H, 8H, 11H and R4, by measuring the activity (initial rates) in increasing concentrations of the substrate, and the KM and Kcat values were calculated by fitting the results to the Michaelis-Menten model (V0=KcatES/(KM+S)). […]
# [7] = substrate: CCn1c(=NN=c2sc3cc(S(=O)(=O)O)ccc3n2CC)sc2cc(S(=O)(=O)O)ccc21; test: as above; format: biochemical, Pleurotus ostreatus; conditions: optimum pH, 25° C., 0.1 mM H2O2
# Procedure: as §1, §2, §3, §4
# [8] = substrate: COc1cccc(OC)c1O; test: as above; format: biochemical, Pleurotus ostreatus; conditions: optimum pH, 25° C., 0.1 mM H2O2
# Procedure: as §1, §2, §3, §4
# [9] = substrate: Nc1c(N=Nc2ccc(S(=O)(=O)CCOS(=O)(=O)O)cc2)c(S(=O)(=O)O)cc2cc(S(=O)(=O)O)c(N=Nc3ccc(S(=O)(=O)CCOS(=O)(=O)O)cc3)c(O)c12; test: as above; format: biochemical, Pleurotus ostreatus; conditions: other: VA, RB5, optimum pH, 25° C., 0.1 mM H2O2
# Procedure: as §1, §2, §3, §4
# [10] = substrate: OO; test: as above; format: biochemical, Pleurotus ostreatus; conditions: other: H2O2 kinetics with 2 mM ABTS, optimum pH for ABTS, 25° C.
# Procedure: as §1, §2, §3, §4
protein,measurement,setting,value
B1,Km,[1],158 ± 27 µM
same,kcat,[1],0.52 ± 0.02 s⁻¹
same,kcat/Km,[1],3300 ± 600 M⁻¹ s⁻¹
same,Km,[2]; other: high efficiency site,1.9 ± 0.4 µM
same,kcat,[2]; other: high efficiency site,1.5 ± 0.1 s⁻¹
same,kcat/Km,[2]; other: high efficiency site,763000 ± 151000 M⁻¹ s⁻¹
same,Km,[2]; other: low efficiency site,765 ± 96 µM
same,kcat,[2]; other: low efficiency site,33.2 ± 1.8 s⁻¹
same,kcat/Km,[2]; other: low efficiency site,43400 ± 5900 M⁻¹ s⁻¹
same,Km,[3]; other: high efficiency site,85.7 ± 16.9 µM
same,kcat,[3]; other: high efficiency site,1.2 ± 0.1 s⁻¹
same,kcat/Km,[3]; other: high efficiency site,14400 ± 3000 M⁻¹ s⁻¹
same,Km,[3]; other: low efficiency site,"27,700 ± 7,100 μM"
same,kcat,[3]; other: low efficiency site,5.4 ± 0.6 s⁻¹
same,kcat/Km,[3]; other: low efficiency site,190 ± 50 M⁻¹ s⁻¹
same,Km,[4],2.9 ± 1.0 µM
same,kcat,[4],0.18 ± 0.04 s⁻¹
same,kcat/Km,[4],62300 ± 25200 M⁻¹ s⁻¹
same,Km,[5],197 ± 20 µM
same,kcat,[5],20.3 ± 0.8 s⁻¹
same,kcat/Km,[5],103000 ± 11000 M⁻¹ s⁻¹
B2,Km,[6],"2,000 ± 100 μM"
same,kcat,[6],1.38 ± 0.03 s⁻¹
same,kcat/Km,[6],680 ± 50 M⁻¹ s⁻¹
same,Km,[7]; other: high efficiency site,6.3 ± 0.7 µM
same,kcat,[7]; other: high efficiency site,2.0 ± 0.1 s⁻¹
same,kcat/Km,[7]; other: high efficiency site,314000 ± 37000 M⁻¹ s⁻¹
same,Km,[7]; other: low efficiency site,"1,100 ± 90 μM"
same,kcat,[7]; other: low efficiency site,11.2 ± 0.3 s⁻¹
same,kcat/Km,[7]; other: low efficiency site,10300 ± 900 M⁻¹ s⁻¹
same,Km,[8]; other: high efficiency site,168 ± 10 µM
same,kcat,[8]; other: high efficiency site,1.91 ± 0.04 s⁻¹
same,kcat/Km,[8]; other: high efficiency site,11400 ± 700 M⁻¹ s⁻¹
same,Km,[8]; other: low efficiency site,"11,400 ± 2,000 μM"
same,kcat,[8]; other: low efficiency site,6.3 ± 0.4 s⁻¹
same,kcat/Km,[8]; other: low efficiency site,550 ± 100 M⁻¹ s⁻¹
same,Km,[9],2.0 ± 0.2 µM
same,kcat,[9],0.3 ± 0.01 s⁻¹
same,kcat/Km,[9],152000 ± 20000 M⁻¹ s⁻¹
same,Km,[10],38.9 ± 6.9 µM
same,kcat,[10],7 ± 0.5 s⁻¹
same,kcat/Km,[10],180000 ± 35000 M⁻¹ s⁻¹

# From patent publication US12331324B2, “Versatile peroxidases and uses thereof” (Yeda Research and Development Co. Ltd., priority 2021, dated 2025)
